Source: patent publication US7179468 (CORNELL RESEARCH FOUNDATION, dated 2007)

B1: N656L peptide (C52 peptide with leucine for asparagine at position 656) (peptide)
chain: NHTTWLEWDREINNYTSLIHSLIEESQNQQEKLEQELLELDKWASLWNWFNI
notes: No unique oligomeric state; The apparent molecular weight depends on the concentration

Assays:
[1] = target: HIV-1 envelope glycoprotein (gp120/gp41 complex) of isolate NL4-3 (HIV-1); experiment: cell-based or functional assay
[2] = target: HIV-1 envelope glycoprotein (gp120/gp41 complex) of isolate 2076c1.3 (HIV-1); experiment: cell-based or functional assay
[3] = target: HIV-1 envelope glycoprotein (gp120/gp41 complex) of isolate JRFL (HIV-1); experiment: cell-based or functional assay
[4] = target: HIV-1 envelope glycoprotein (gp120/gp41 complex) of isolate HC4 (HIV-1); experiment: cell-based or functional assay
[5] = target: HIV-1 envelope glycoprotein (gp120/gp41 complex) of isolate 92US657 (HIV-1); experiment: cell-based or functional assay
[6] = target: Q652L peptide (C52 peptide with leucine for glutamine at position 652) (HIV-1 (HXB2 strain)); experiment: sedimentation equilibrium, 4 C; self-association
[7] = target: HIV-1 envelope glycoprotein (gp120/gp41 complex) of isolate DH123 (HIV-1); experiment: cell-based or functional assay
[8] = target: HIV-1 envelope glycoprotein (gp120/gp41 complex) of isolate SF162 (HIV-1) (UniProt P19549); experiment: cell-based or functional assay
[9] = target: the molecule itself; experiment: sedimentation equilibrium; self-association

Molecule | EC50 IgG (ug/ml), neutralization of HIV-1 (p24 production in PHA-activated PBMC) [1] [µg/mL] | EC50 IgG (ug/ml), neutralization of HIV-1 (p24 production in PHA-activated PBMC) [2] [µg/mL] | EC50 IgG (ug/ml), neutralization of HIV-1 (p24 production in PHA-activated PBMC) [3] [µg/mL] | EC50 IgG (ug/ml), neutralization of HIV-1 (p24 production in PHA-activated PBMC) [4] [µg/mL] | EC50 IgG (ug/ml), neutralization of HIV-1 (p24 production in PHA-activated PBMC) [5] [µg/mL] | molecular weight from sedimentation equilibrium (expected for a trimer 19,419) [6] | EC50 IgG (ug/ml), neutralization of HIV-1 (p24 production in PHA-activated PBMC) [7] [µg/mL] | EC50 IgG (ug/ml), neutralization of HIV-1 (p24 production in PHA-activated PBMC) [8] [µg/mL] | binding result [9]
human antibody 2F5 isolated from an HIV-1-infected donor | 15.2 | 38.1 | 4.37 | 34.2 | 57.8 |  |  |  | 
Q652L peptide (C52 peptide with leucine for glutamine at position 652) |  |  |  |  |  | 17700 |  |  | 
CD4-IgG2 (Fc fusion) | 0.21 | > 10 | 0.51 | > 10 | > 10 |  | 5.18 | < 0.062 | 
B1 |  |  |  |  |  |  |  |  | binds
